From US20190367631A1 come the findings set out here.

Test [1] concerns the target endogenously expressed human MSR1 on PMA-treated THP-1 cells (human) (UniProt P21757). Put plainly: confocal imaging, differentiated THP-1 cells, Alexa 488 secondary.
Test [2] has the same target. Put plainly: cell-based or functional assay.
In test [3] the target is full length human MSR1 with a C-terminal Myc tag, on HEK293.Myc.hMSR1 cells (human) (UniProt P21757). Put plainly: ECL cell binding, HEK293.Myc.hMSR1 cells, 11 nM.
Test [4] deals with endogenously expressed human MSR1 on PMA-treated THP-1 cells (human) (UniProt P21757). Put plainly: ECL cell binding, PMA-treated THP-1 cells, 11 nM.
The target in test [5] is human MSR1 extracellular domain expressed with a N-terminal nonahistidine tag (human) (UniProt P21757). Briefly: competition ELISA, plate-coated His9-hMSR1; 300 nM control antibody, competitor ligand biot-AGE-BSA. For orientation: An ELISA detects its analyte on a solid surface through an enzyme-linked reagent.
For test [6] the target is unchanged. Put plainly: competition ELISA, plate-coated His9-hMSR1; 1 µM control antibody, competitor ligand 10 nM Ox-LDL.
Test [7] has the same target. Put plainly: competition ELISA, plate-coated His9-hMSR1; 100 nM control antibody, competitor ligand Ac-LDL.

Chain of endogenously expressed human MSR1 on PMA-treated THP-1 cells (human) (P21757 whole entry, the tested form may be a part): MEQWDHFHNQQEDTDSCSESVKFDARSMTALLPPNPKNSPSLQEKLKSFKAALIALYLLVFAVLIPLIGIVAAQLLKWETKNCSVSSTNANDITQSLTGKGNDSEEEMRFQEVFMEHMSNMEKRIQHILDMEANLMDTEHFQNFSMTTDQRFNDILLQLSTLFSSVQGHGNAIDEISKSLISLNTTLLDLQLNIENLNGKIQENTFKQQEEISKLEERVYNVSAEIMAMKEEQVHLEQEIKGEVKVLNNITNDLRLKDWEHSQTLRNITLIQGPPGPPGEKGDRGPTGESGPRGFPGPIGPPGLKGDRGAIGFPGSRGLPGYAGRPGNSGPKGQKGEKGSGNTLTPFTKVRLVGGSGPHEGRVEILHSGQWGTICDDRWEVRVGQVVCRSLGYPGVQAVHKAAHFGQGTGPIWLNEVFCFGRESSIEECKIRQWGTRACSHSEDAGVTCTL
Chain of human MSR1 extracellular domain expressed with a N-terminal nonahistidine tag (human) (P21757 other isoform, or with tags, fused parts or gaps): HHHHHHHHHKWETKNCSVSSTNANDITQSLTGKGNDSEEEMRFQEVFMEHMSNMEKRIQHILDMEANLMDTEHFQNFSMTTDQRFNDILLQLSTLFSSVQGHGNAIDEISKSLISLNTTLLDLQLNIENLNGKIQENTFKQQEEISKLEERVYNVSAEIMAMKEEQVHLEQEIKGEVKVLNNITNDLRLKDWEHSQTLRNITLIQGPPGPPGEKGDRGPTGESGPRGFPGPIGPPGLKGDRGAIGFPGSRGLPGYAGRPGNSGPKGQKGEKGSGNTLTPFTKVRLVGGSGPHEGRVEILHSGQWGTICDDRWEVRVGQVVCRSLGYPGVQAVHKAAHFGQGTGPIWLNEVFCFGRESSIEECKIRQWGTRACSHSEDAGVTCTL
Chain of full length human MSR1 with a C-terminal Myc tag, on HEK293.Myc.hMSR1 cells (human) (P21757 whole entry): as the sequence (P21757 whole entry, the tested form may be a part) above

In test [1], Isotype control (antibody) showed a Total Binding at 4° C. (RFU) of 186000 RFU and a Total Binding at 37° C. (RFU) of 1.09e+06 RFU. Besides, the Total Internalized RFU in test [2] is 1.7e+06 RFU.
Turning to hIgG1 Isotype Control (antibody), the ratio of binding signal (RLU) to isotype control in test [3] and in test [4] was 1 fold in each case.
For hIgG1 isotype control (antibody), the figures for the % Blocking in test [5], in test [6] and in test [7] were 4%, 3% and -8%, respectively.
In the case of mIgG1 isotype control (antibody), the % Blocking in test [5] was 7%; in test [6] it was 16%; in test [7] it was -4%.
Regarding mIgG Isotype Control (antibody), the ratio of binding signal (RLU) to isotype control in test [3] and in test [4] was 1 fold throughout.
